Starred links: 1 amine or outer side, 2 acyl side, 3 side chain; linkers in the order of their positions; H or OH if unused. Non-standard residues stand in square brackets, D forms with d. Groups on a side chain read outwards from the residue. No end group written: not given here. *: point of attachment. C20 diacid = O=C(O)CCCCCCCCCCCCCCCCCCC(=O)*; αMePhe(2-F) = C[C@](N)(Cc1ccccc1F)C(=O)O; γGlu = O=C(O)[C@H](CCC(=O)[*:2])N[*:1]; αMeL = CC(C)C[C@](C)(N)C(=O)O; Orn = NCCC[C@H](N)C(=O)O; AEEA = NCCOCCOCC(=O)O; Aib = CC(C)(N)C(=O)O
T1: human GIP receptor (human) (UniProt P48546)
T1 sequence (looked up): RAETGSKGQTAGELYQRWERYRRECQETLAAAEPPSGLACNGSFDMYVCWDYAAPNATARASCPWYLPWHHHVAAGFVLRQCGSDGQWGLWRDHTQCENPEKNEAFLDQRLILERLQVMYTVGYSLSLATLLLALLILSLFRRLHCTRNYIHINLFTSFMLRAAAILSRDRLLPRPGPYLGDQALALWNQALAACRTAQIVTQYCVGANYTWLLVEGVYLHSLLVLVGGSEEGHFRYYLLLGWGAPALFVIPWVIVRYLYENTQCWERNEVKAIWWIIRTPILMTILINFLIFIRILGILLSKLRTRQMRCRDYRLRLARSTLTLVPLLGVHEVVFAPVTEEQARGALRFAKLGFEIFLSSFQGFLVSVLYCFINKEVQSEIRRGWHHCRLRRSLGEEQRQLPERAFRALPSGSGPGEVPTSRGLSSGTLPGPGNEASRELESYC


Target: hGLP-1R (Homo sapiens, UniProt P43220)
Sequence (P43220 24-463): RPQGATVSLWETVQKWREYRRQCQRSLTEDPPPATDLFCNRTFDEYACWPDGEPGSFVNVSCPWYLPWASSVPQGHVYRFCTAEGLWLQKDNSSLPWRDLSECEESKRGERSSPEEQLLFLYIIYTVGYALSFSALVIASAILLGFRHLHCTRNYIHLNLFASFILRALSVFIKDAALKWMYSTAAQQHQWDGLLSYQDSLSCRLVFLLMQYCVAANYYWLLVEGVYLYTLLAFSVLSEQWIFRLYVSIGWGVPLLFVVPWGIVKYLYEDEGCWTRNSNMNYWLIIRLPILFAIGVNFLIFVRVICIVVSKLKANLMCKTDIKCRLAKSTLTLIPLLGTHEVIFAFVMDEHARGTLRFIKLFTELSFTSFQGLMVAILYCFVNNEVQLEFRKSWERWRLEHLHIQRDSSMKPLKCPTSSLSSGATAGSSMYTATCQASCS
Experiment: cell-based or functional assay

Binder	Relative cAMP EC50 [nM]	cAMP Rel EC50 (1% HSA) [nM]
Y[Aib]QGT[αMePhe(2-F)]TSDYSKLLDEIAQKAFIEYLLEGGPSSGEPPPSEG-NH2 (not fully specified (residue 20)) [Example 303]	1.13	257
Y[Aib]QGTFTSDYSI[αMeL]LDKQAAK([AEEA-AEEA-γGlu-C20 diacid])AFVEWLLA[Aib]GPSSGEPPPSEG-NH2 [Example 317]	1.32	234
Y[Aib]QGTFTSDYSI[αMeL]LDKQAAK([AEEA-AEEA-γGlu-C20 diacid])QFIEWLIEGGPSSGEPPPGEG-NH2 [Example 318]	0.698	111
Y[Aib]QGTFTSDYSI[αMeL]LDKIAAK([AEEA-AEEA-γGlu-C20 diacid])QFVEYLIAGGPSSGEPPPSEG-NH2 [Example 312]	2.66	589
Y[Aib]QGT[αMePhe(2-F)]TSDYSKLLDKIAQK([AEEA-γGlu-C20 diacid])[Orn]FIEWLIEGGPSSGEPPPSEG-NH2 [Example 310]	0.586	177
Y[Aib]QGTFTSDYSI[αMeL]LDKQAAK([AEEA-AEEA-γGlu-C20 diacid])QFVEWLLAGGPSSGEPPPGEG-NH2 [Example 320]	2.58	328
Y[Aib]QGTFTSDYSK[αMeL]LDKK([AEEA-γGlu-C20 diacid])AQQAFIQWLIEGGPSSGEPPPSEG-NH2 [Example 314]	0.274	100
Y[Aib]QGTFTSDYSI[αMeL]LD[Orn]QAAK([AEEA-AEEA-γGlu-C20 diacid])QFVEWLLA[Aib]GPSSGEPPPSEG-NH2 [Example 328]	1.3	462
Y[Aib]QGTFTSDYSI[αMeL]LDKQAAK([AEEA-AEEA-γGlu-C20 diacid])QFVEWLLA[Aib]GPSSGAPPPSEG-NH2 [Example 327]	1.61	473
Y[Aib]QGTFTSDYSI[αMeL]LDKQAAK([AEEA-AEEA-γGlu-C20 diacid])QFVNWLLA[Aib]GPSSGEPPPSEG-NH2 [Example 325]	1.56	371
Y[Aib]QGTFTSDYSK[αMeL]LDKK([AEEA-γGlu-C20 diacid])AQQAFIEYLIAGGPSSGAPPPSSE-NH2 [Example 322]	0.394	135
Y[Aib]QGT[αMePhe(2-F)]TSDYSILLDKAAQK[Orn]FIEYLIEGGPSSGEPPPSEG-NH2 (not fully specified (residue 20)) [Example 306]	0.335	126

Target: T1, human GIP receptor (human)
Experiment: cell-based or functional assay

Binder	Relative cAMP EC50 [nM]	cAMP Rel EC50 (1% HSA) [nM]
Y[Aib]QGT[αMePhe(2-F)]TSDYSKLLDEIAQKAFIEYLLEGGPSSGEPPPSEG-NH2 (not fully specified (residue 20)) [Example 303]	0.116	44.7
Y[Aib]QGTFTSDYSI[αMeL]LDKQAAK([AEEA-AEEA-γGlu-C20 diacid])AFVEWLLA[Aib]GPSSGEPPPSEG-NH2 [Example 317]	0.474	62.8
Y[Aib]QGTFTSDYSI[αMeL]LDKQAAK([AEEA-AEEA-γGlu-C20 diacid])QFIEWLIEGGPSSGEPPPGEG-NH2 [Example 318]	0.378	52.8
Y[Aib]QGTFTSDYSI[αMeL]LDKIAAK([AEEA-AEEA-γGlu-C20 diacid])QFVEYLIAGGPSSGEPPPSEG-NH2 [Example 312]	0.504	97.7
Y[Aib]QGT[αMePhe(2-F)]TSDYSKLLDKIAQK([AEEA-γGlu-C20 diacid])[Orn]FIEWLIEGGPSSGEPPPSEG-NH2 [Example 310]	0.0939	15
Y[Aib]QGTFTSDYSI[αMeL]LDKQAAK([AEEA-AEEA-γGlu-C20 diacid])QFVEWLLAGGPSSGEPPPGEG-NH2 [Example 320]	0.274	55.3
Y[Aib]QGTFTSDYSK[αMeL]LDKK([AEEA-γGlu-C20 diacid])AQQAFIQWLIEGGPSSGEPPPSEG-NH2 [Example 314]	0.345	65.9
Y[Aib]QGTFTSDYSI[αMeL]LD[Orn]QAAK([AEEA-AEEA-γGlu-C20 diacid])QFVEWLLA[Aib]GPSSGEPPPSEG-NH2 [Example 328]	0.544	91.1
Y[Aib]QGTFTSDYSI[αMeL]LDKQAAK([AEEA-AEEA-γGlu-C20 diacid])QFVEWLLA[Aib]GPSSGAPPPSEG-NH2 [Example 327]	0.312	63.3
Y[Aib]QGTFTSDYSI[αMeL]LDKQAAK([AEEA-AEEA-γGlu-C20 diacid])QFVNWLLA[Aib]GPSSGEPPPSEG-NH2 [Example 325]	0.351	82.7
Y[Aib]QGTFTSDYSK[αMeL]LDKK([AEEA-γGlu-C20 diacid])AQQAFIEYLIAGGPSSGAPPPSSE-NH2 [Example 322]	0.264	89.3
Y[Aib]QGT[αMePhe(2-F)]TSDYSILLDKAAQK[Orn]FIEYLIEGGPSSGEPPPSEG-NH2 (not fully specified (residue 20)) [Example 306]	0.142	95.3

Target: human glucagon receptor (human) (UniProt P47871)
Sequence (P47871 26-477): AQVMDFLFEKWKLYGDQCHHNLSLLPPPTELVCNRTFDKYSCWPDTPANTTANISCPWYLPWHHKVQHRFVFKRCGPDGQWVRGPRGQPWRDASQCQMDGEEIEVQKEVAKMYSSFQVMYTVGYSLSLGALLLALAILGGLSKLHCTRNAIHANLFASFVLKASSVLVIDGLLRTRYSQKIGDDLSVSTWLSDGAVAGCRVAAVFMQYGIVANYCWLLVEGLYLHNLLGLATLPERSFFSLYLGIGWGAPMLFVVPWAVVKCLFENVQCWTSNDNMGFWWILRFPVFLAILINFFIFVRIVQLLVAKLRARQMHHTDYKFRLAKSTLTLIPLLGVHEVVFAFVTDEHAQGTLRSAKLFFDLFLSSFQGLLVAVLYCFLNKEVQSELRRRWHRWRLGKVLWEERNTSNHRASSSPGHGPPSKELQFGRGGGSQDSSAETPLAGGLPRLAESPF
Experiment: cell-based or functional assay

Binder	Relative cAMP EC50 [nM]	cAMP Rel EC50 (1% HSA) [nM]
Y[Aib]QGT[αMePhe(2-F)]TSDYSKLLDEIAQKAFIEYLLEGGPSSGEPPPSEG-NH2 (not fully specified (residue 20)) [Example 303]	6.1	9950
Y[Aib]QGTFTSDYSI[αMeL]LDKQAAK([AEEA-AEEA-γGlu-C20 diacid])AFVEWLLA[Aib]GPSSGEPPPSEG-NH2 [Example 317]	2.42	1500
Y[Aib]QGTFTSDYSI[αMeL]LDKQAAK([AEEA-AEEA-γGlu-C20 diacid])QFIEWLIEGGPSSGEPPPGEG-NH2 [Example 318]	5.03	1970
Y[Aib]QGTFTSDYSI[αMeL]LDKIAAK([AEEA-AEEA-γGlu-C20 diacid])QFVEYLIAGGPSSGEPPPSEG-NH2 [Example 312]	7.5	4070
Y[Aib]QGT[αMePhe(2-F)]TSDYSKLLDKIAQK([AEEA-γGlu-C20 diacid])[Orn]FIEWLIEGGPSSGEPPPSEG-NH2 [Example 310]	3.52	4000
Y[Aib]QGTFTSDYSI[αMeL]LDKQAAK([AEEA-AEEA-γGlu-C20 diacid])QFVEWLLAGGPSSGEPPPGEG-NH2 [Example 320]	6.87	1170
Y[Aib]QGTFTSDYSK[αMeL]LDKK([AEEA-γGlu-C20 diacid])AQQAFIQWLIEGGPSSGEPPPSEG-NH2 [Example 314]	3.7	1030
Y[Aib]QGTFTSDYSI[αMeL]LD[Orn]QAAK([AEEA-AEEA-γGlu-C20 diacid])QFVEWLLA[Aib]GPSSGEPPPSEG-NH2 [Example 328]	10.3	2040
Y[Aib]QGTFTSDYSI[αMeL]LDKQAAK([AEEA-AEEA-γGlu-C20 diacid])QFVEWLLA[Aib]GPSSGAPPPSEG-NH2 [Example 327]	3.04	1400
Y[Aib]QGTFTSDYSI[αMeL]LDKQAAK([AEEA-AEEA-γGlu-C20 diacid])QFVNWLLA[Aib]GPSSGEPPPSEG-NH2 [Example 325]	2.43	774
Y[Aib]QGTFTSDYSK[αMeL]LDKK([AEEA-γGlu-C20 diacid])AQQAFIEYLIAGGPSSGAPPPSSE-NH2 [Example 322]	5.41	2620
Y[Aib]QGT[αMePhe(2-F)]TSDYSILLDKAAQK[Orn]FIEYLIEGGPSSGEPPPSEG-NH2 (not fully specified (residue 20)) [Example 306]	5.8	2820

Reference: patent publication US20240270821A1, “GIP/GLP1/GCG TRI-RECEPTOR AGONISTS AND USES THEREOF” (priority 2023, published 2024)
